# Test results from patent publication US4285932A, “Enzyme derivatives for use in the treatment of venous thrombosis” (Beecham Group Limited, priority 1978, dated 1981).
# System: Human Plasmin
# Test: Deacylation (hydrolysis) of active-site blocked human plasmin, pseudo-first order rate constant followed by regain of activity on chromogenic substrate S-2251
# Format: biochemical
# Conditions: active site serine substituted human plasmin; pH 7.4, 37° C.
# Method: The pseudo-first order rate constant is determined by hydrolysing the enzyme derivative under physiological conditions i.e. in isotonic aqueous media at pH 7.4 and at 37° C. At regular intervals aliquots are withdrawn and incubated with a chromogenic or fluorogenic protease substrate such as S-2251 (H-D-Val-Leu-Lys-p-nitroanilide 2HCl) and the rate of conversion of the substrate measured.
# The hydrolysis is followed until such time as the rate of conversion of substrate reaches a maximum. The rate constant k is then calculated by plotting: […]
# loge (1-^At /Amax) against t
# where Amax the maximum rate at which an aliquot converts substrate and At is the rate at which an aliquot converts substrate at time t.
row,Molecule,"Deacylation rate, Human Plasmin K sec^-1 × 10^4"
1,"3,3 Dimethylacryloyl: human plasmin, active site serine blocked by 3,3-dimethylacryloyl (acylating agent of Example 4) (protein, UniProt P00747 20-580; P00747 581-810, looked up, plasmin 3,3-dimethylacryloyl acylated active site) Plasmin heavy chain A: EPLDDYVNTQGASLFSVTKKQLGAGSIEECAAKCEEDEEFTCRAFQYHSKEQQCVIMAENRKSSIIIRMRDVVLFEKKVYLSECKTGNGKNYRGTMSKTKNGITCQKWSSTSPHRPRFSPATHPSEGLEENYCRNPDNDPQGPWCYTTDPEKRYDYCDILECEEECMHCSGENYDGKISKTMSGLECQAWDSQSPHAHGYIPSKFPNKNLKKNYCRNPDRELRPWCFTTDPNKRWELCDIPRCTTPPPSSGPTYQCLKGTGENYRGNVAVTVSGHTCQHWSAQTPHTHNRTPENFPCKNLDENYCRNPDGKRAPWCHTTNSQVRWEYCKIPSCDSSPVSTEQLAPTAPPELTPVVQDCYHGDGQSYRGTSSTTTTGKKCQSWSSMTPHRHQKTPENYPNAGLTMNYCRNPDADKGPWCFTTDPSVRWEYCNLKKCSGTEASVVAPPPVVLLPDVETPSEEDCMFGNGKGYRGKRATTVTGTPCQDWAAQEPHRHSIFTPETNPRAGLEKNYCRNPDGDVGGPWCYTTNPRKLYDYCDVPQCAAPSFDCGKPQVEPKKCPGR Plasmin light chain B: VVGGCVAHPHSWPWQVSLRTRFGMHFCGGTLISPEWVLTAAHCLEKSPRPSSYKVILGAHQEVNLEPHVQEIEVSRLFLEPTRKDIALLKLSSPAVITDKVIPACLPSPNYVVADRTECFITGWGETQGTFGAGLLKEAQLPVIENKVCNRYEFLNGRVQSTELCAGHLAGGTDSCQGDSGGPLVCFEKDKYILQGVTSWGLGCARPNKPGVYVRVSRFVTWIEGVMRNN",0.69 sec^-1 × 10^4
2,"N-methyl-p-guanidinobenzoyl: human plasmin, active site serine blocked by N-methyl-p-guanidinobenzoyl (protein, UniProt P00747 20-580; P00747 581-810, looked up, plasmin N-methyl-p-guanidinobenzoyl acylated active site) Plasmin heavy chain A: EPLDDYVNTQGASLFSVTKKQLGAGSIEECAAKCEEDEEFTCRAFQYHSKEQQCVIMAENRKSSIIIRMRDVVLFEKKVYLSECKTGNGKNYRGTMSKTKNGITCQKWSSTSPHRPRFSPATHPSEGLEENYCRNPDNDPQGPWCYTTDPEKRYDYCDILECEEECMHCSGENYDGKISKTMSGLECQAWDSQSPHAHGYIPSKFPNKNLKKNYCRNPDRELRPWCFTTDPNKRWELCDIPRCTTPPPSSGPTYQCLKGTGENYRGNVAVTVSGHTCQHWSAQTPHTHNRTPENFPCKNLDENYCRNPDGKRAPWCHTTNSQVRWEYCKIPSCDSSPVSTEQLAPTAPPELTPVVQDCYHGDGQSYRGTSSTTTTGKKCQSWSSMTPHRHQKTPENYPNAGLTMNYCRNPDADKGPWCFTTDPSVRWEYCNLKKCSGTEASVVAPPPVVLLPDVETPSEEDCMFGNGKGYRGKRATTVTGTPCQDWAAQEPHRHSIFTPETNPRAGLEKNYCRNPDGDVGGPWCYTTNPRKLYDYCDVPQCAAPSFDCGKPQVEPKKCPGR Plasmin light chain B: VVGGCVAHPHSWPWQVSLRTRFGMHFCGGTLISPEWVLTAAHCLEKSPRPSSYKVILGAHQEVNLEPHVQEIEVSRLFLEPTRKDIALLKLSSPAVITDKVIPACLPSPNYVVADRTECFITGWGETQGTFGAGLLKEAQLPVIENKVCNRYEFLNGRVQSTELCAGHLAGGTDSCQGDSGGPLVCFEKDKYILQGVTSWGLGCARPNKPGVYVRVSRFVTWIEGVMRNN",2.0 sec^-1 × 10^4
3,"Acetylsalicycloyl: human plasmin, active site serine blocked by acetylsalicyloyl (acylating agent of Example 7) (protein, UniProt P00747 20-580; P00747 581-810, looked up, plasmin acetylsalicyloyl acylated active site) Plasmin heavy chain A: EPLDDYVNTQGASLFSVTKKQLGAGSIEECAAKCEEDEEFTCRAFQYHSKEQQCVIMAENRKSSIIIRMRDVVLFEKKVYLSECKTGNGKNYRGTMSKTKNGITCQKWSSTSPHRPRFSPATHPSEGLEENYCRNPDNDPQGPWCYTTDPEKRYDYCDILECEEECMHCSGENYDGKISKTMSGLECQAWDSQSPHAHGYIPSKFPNKNLKKNYCRNPDRELRPWCFTTDPNKRWELCDIPRCTTPPPSSGPTYQCLKGTGENYRGNVAVTVSGHTCQHWSAQTPHTHNRTPENFPCKNLDENYCRNPDGKRAPWCHTTNSQVRWEYCKIPSCDSSPVSTEQLAPTAPPELTPVVQDCYHGDGQSYRGTSSTTTTGKKCQSWSSMTPHRHQKTPENYPNAGLTMNYCRNPDADKGPWCFTTDPSVRWEYCNLKKCSGTEASVVAPPPVVLLPDVETPSEEDCMFGNGKGYRGKRATTVTGTPCQDWAAQEPHRHSIFTPETNPRAGLEKNYCRNPDGDVGGPWCYTTNPRKLYDYCDVPQCAAPSFDCGKPQVEPKKCPGR Plasmin light chain B: VVGGCVAHPHSWPWQVSLRTRFGMHFCGGTLISPEWVLTAAHCLEKSPRPSSYKVILGAHQEVNLEPHVQEIEVSRLFLEPTRKDIALLKLSSPAVITDKVIPACLPSPNYVVADRTECFITGWGETQGTFGAGLLKEAQLPVIENKVCNRYEFLNGRVQSTELCAGHLAGGTDSCQGDSGGPLVCFEKDKYILQGVTSWGLGCARPNKPGVYVRVSRFVTWIEGVMRNN",4.70 sec^-1 × 10^4
4,"p-Acetamidobenzoyl: human plasmin, active site serine blocked by p-acetamidobenzoyl (acylating agent of Example 18) (protein, UniProt P00747 20-580; P00747 581-810, looked up, plasmin p-acetamidobenzoyl acylated active site) Plasmin heavy chain A: EPLDDYVNTQGASLFSVTKKQLGAGSIEECAAKCEEDEEFTCRAFQYHSKEQQCVIMAENRKSSIIIRMRDVVLFEKKVYLSECKTGNGKNYRGTMSKTKNGITCQKWSSTSPHRPRFSPATHPSEGLEENYCRNPDNDPQGPWCYTTDPEKRYDYCDILECEEECMHCSGENYDGKISKTMSGLECQAWDSQSPHAHGYIPSKFPNKNLKKNYCRNPDRELRPWCFTTDPNKRWELCDIPRCTTPPPSSGPTYQCLKGTGENYRGNVAVTVSGHTCQHWSAQTPHTHNRTPENFPCKNLDENYCRNPDGKRAPWCHTTNSQVRWEYCKIPSCDSSPVSTEQLAPTAPPELTPVVQDCYHGDGQSYRGTSSTTTTGKKCQSWSSMTPHRHQKTPENYPNAGLTMNYCRNPDADKGPWCFTTDPSVRWEYCNLKKCSGTEASVVAPPPVVLLPDVETPSEEDCMFGNGKGYRGKRATTVTGTPCQDWAAQEPHRHSIFTPETNPRAGLEKNYCRNPDGDVGGPWCYTTNPRKLYDYCDVPQCAAPSFDCGKPQVEPKKCPGR Plasmin light chain B: VVGGCVAHPHSWPWQVSLRTRFGMHFCGGTLISPEWVLTAAHCLEKSPRPSSYKVILGAHQEVNLEPHVQEIEVSRLFLEPTRKDIALLKLSSPAVITDKVIPACLPSPNYVVADRTECFITGWGETQGTFGAGLLKEAQLPVIENKVCNRYEFLNGRVQSTELCAGHLAGGTDSCQGDSGGPLVCFEKDKYILQGVTSWGLGCARPNKPGVYVRVSRFVTWIEGVMRNN",2.70 sec^-1 × 10^4
5,"O-Anisoyl: human plasmin, active site serine blocked by o-anisoyl (acylating agent of Example 15) (protein, UniProt P00747 20-580; P00747 581-810, looked up, plasmin o-anisoyl acylated active site) Plasmin heavy chain A: EPLDDYVNTQGASLFSVTKKQLGAGSIEECAAKCEEDEEFTCRAFQYHSKEQQCVIMAENRKSSIIIRMRDVVLFEKKVYLSECKTGNGKNYRGTMSKTKNGITCQKWSSTSPHRPRFSPATHPSEGLEENYCRNPDNDPQGPWCYTTDPEKRYDYCDILECEEECMHCSGENYDGKISKTMSGLECQAWDSQSPHAHGYIPSKFPNKNLKKNYCRNPDRELRPWCFTTDPNKRWELCDIPRCTTPPPSSGPTYQCLKGTGENYRGNVAVTVSGHTCQHWSAQTPHTHNRTPENFPCKNLDENYCRNPDGKRAPWCHTTNSQVRWEYCKIPSCDSSPVSTEQLAPTAPPELTPVVQDCYHGDGQSYRGTSSTTTTGKKCQSWSSMTPHRHQKTPENYPNAGLTMNYCRNPDADKGPWCFTTDPSVRWEYCNLKKCSGTEASVVAPPPVVLLPDVETPSEEDCMFGNGKGYRGKRATTVTGTPCQDWAAQEPHRHSIFTPETNPRAGLEKNYCRNPDGDVGGPWCYTTNPRKLYDYCDVPQCAAPSFDCGKPQVEPKKCPGR Plasmin light chain B: VVGGCVAHPHSWPWQVSLRTRFGMHFCGGTLISPEWVLTAAHCLEKSPRPSSYKVILGAHQEVNLEPHVQEIEVSRLFLEPTRKDIALLKLSSPAVITDKVIPACLPSPNYVVADRTECFITGWGETQGTFGAGLLKEAQLPVIENKVCNRYEFLNGRVQSTELCAGHLAGGTDSCQGDSGGPLVCFEKDKYILQGVTSWGLGCARPNKPGVYVRVSRFVTWIEGVMRNN",1.82 sec^-1 × 10^4

# Same assay, conditions: conditions specified for deacylation (isotonic aqueous media, pH 7.4, 37° C.)
row,Molecule,time for quantitative reactivation to free plasmin
1,"p-Anisoyl Human Plasmin (protein, UniProt P00747 20-580; P00747 581-810, looked up, Plasmin active-site p-anisoyl acylated, human plasmin acylated at the catalytic site with p-amidinophenyl p'anisate) Plasmin heavy chain A: EPLDDYVNTQGASLFSVTKKQLGAGSIEECAAKCEEDEEFTCRAFQYHSKEQQCVIMAENRKSSIIIRMRDVVLFEKKVYLSECKTGNGKNYRGTMSKTKNGITCQKWSSTSPHRPRFSPATHPSEGLEENYCRNPDNDPQGPWCYTTDPEKRYDYCDILECEEECMHCSGENYDGKISKTMSGLECQAWDSQSPHAHGYIPSKFPNKNLKKNYCRNPDRELRPWCFTTDPNKRWELCDIPRCTTPPPSSGPTYQCLKGTGENYRGNVAVTVSGHTCQHWSAQTPHTHNRTPENFPCKNLDENYCRNPDGKRAPWCHTTNSQVRWEYCKIPSCDSSPVSTEQLAPTAPPELTPVVQDCYHGDGQSYRGTSSTTTTGKKCQSWSSMTPHRHQKTPENYPNAGLTMNYCRNPDADKGPWCFTTDPSVRWEYCNLKKCSGTEASVVAPPPVVLLPDVETPSEEDCMFGNGKGYRGKRATTVTGTPCQDWAAQEPHRHSIFTPETNPRAGLEKNYCRNPDGDVGGPWCYTTNPRKLYDYCDVPQCAAPSFDCGKPQVEPKKCPGR Plasmin light chain B: VVGGCVAHPHSWPWQVSLRTRFGMHFCGGTLISPEWVLTAAHCLEKSPRPSSYKVILGAHQEVNLEPHVQEIEVSRLFLEPTRKDIALLKLSSPAVITDKVIPACLPSPNYVVADRTECFITGWGETQGTFGAGLLKEAQLPVIENKVCNRYEFLNGRVQSTELCAGHLAGGTDSCQGDSGGPLVCFEKDKYILQGVTSWGLGCARPNKPGVYVRVSRFVTWIEGVMRNN",approximately two
